The text below walks through data of US20120121706A1 (TUFTS MEDICAL CENTER, published 2012).

The labels stand for the following.
B2: proMMP-1 (platelet-associated zymogen of MMP-1) (enzyme, human, UniProt P03956 20-469, looked up)
chain: FPATLETQEQDVDLVQKYLEKYYNLKNDGRQVEKRRNSGPVVEKLKQMQEFFGLKVTGKPDAETLKVMKQPRCGVPDVAQFVLTEGNPRWEQTHLTYRIENYTPDLPRADVDHAIEKAFQLWSNVTPLTFTKVSEGQADIMISFVRGDHRDNSPFDGPGGNLAHAFQPGPGIGGDAHFDEDERWTNNFREYNLHRVAAHELGHSLGLSHSTDIGALMYPSYTFSGDVQLAQDDIDGIQAIYGRSQNPVQPIGPQTPKACDSKLTFDAITTIRGEVMFFKDRFYMRTNPFYPEVELNFISVFWPQLPNGLEAAYEFADRDEVRFFKGNKYWAVQGQNVLHGYPKDIYSSFGFPRTVKHIDAALSEENTGKTYFFVANKYWRYDEYKRSMDPGYPKMIAHDFPGIGHKVDAVFMKDGFFYFFHGTRQYKFDPKTKRILTLQKANSWFNCRKN
notes: Endogenous protein co-immunoprecipitated from platelet lysates; detected by Western with AB8105 or AB806; also called MMP-1 (predominantly in the pro form)

Experiment [1] addresses PAR1 (protease-activated receptor-1) on human platelets (human) (UniProt P25116). Description: cell-based or functional assay.
Experiment [2] addresses PAR4 thrombin receptor on human platelets (human) (UniProt Q96RI0). Description: cell-based or functional assay.
For experiment [3], the target named is B2. Description: co-immunoprecipitation from resting human platelet lysates (anti-GPVI SC20149), Western for MMP-1. As for the experimental part:
(§1) One candidate binding site(s) for the platelet-associated proMMP-1 is the α₂β₁ collagen receptor. To determine if proMMP-1 associates with integrins in resting human platelets, lysates from gel-filtered platelets were incubated with 4-5 μg/ml anti-α₂ (Gi9 or AK7), β₁ (MAB1987), β₃ (MAB1957), GPVI (SC20149), GPIBα (MM2/174) or mouse IgG control for 2-4 h at 4° C. Protein G sepharose was added and incubated for an additional 1 h. Beads were collected and washed 4× in lysis buffer supplemented with 200 mM NaCl.

The target of experiment [4] is GPIbα of human platelets (human, UniProt P07359 17-652). Description: co-immunoprecipitation from resting human platelet lysates (anti-GPIBα MM2/174), Western for MMP-1. As for the experimental part: as §1

Chain of PAR1 (protease-activated receptor-1) on human platelets (human) (P25116 42-425): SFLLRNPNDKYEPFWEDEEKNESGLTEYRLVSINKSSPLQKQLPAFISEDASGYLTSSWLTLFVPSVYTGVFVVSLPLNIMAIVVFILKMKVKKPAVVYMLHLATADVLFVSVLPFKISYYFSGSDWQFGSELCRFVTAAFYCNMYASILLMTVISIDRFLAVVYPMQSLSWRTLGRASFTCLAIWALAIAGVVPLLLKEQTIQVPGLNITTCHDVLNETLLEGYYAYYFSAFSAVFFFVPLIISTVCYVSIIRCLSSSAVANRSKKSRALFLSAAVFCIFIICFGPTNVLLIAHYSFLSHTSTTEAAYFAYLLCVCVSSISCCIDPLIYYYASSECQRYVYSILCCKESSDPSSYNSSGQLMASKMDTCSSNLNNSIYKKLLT
Chain of PAR4 thrombin receptor on human platelets (human) (Q96RI0 48-385): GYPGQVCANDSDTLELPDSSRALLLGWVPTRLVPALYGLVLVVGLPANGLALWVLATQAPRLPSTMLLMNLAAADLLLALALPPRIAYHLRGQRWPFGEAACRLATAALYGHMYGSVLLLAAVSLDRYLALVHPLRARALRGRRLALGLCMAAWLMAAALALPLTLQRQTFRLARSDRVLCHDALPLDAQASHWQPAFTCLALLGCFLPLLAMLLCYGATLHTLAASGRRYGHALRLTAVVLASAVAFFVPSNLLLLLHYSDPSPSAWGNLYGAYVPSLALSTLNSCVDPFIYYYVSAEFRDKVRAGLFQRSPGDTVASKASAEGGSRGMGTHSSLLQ

In experiment [1], P1pal-12 (PAR1 pepducin lipopeptide) had a decrease in growth rate and size of platelet aggregate strings on collagen under arterial flow, 3 µM of 75%.
P4pal-10 (PAR4 pepducin lipopeptide): the collagen-induced platelet aggregation, 3 µM pepducin in experiment [2] worked out at 10%.

B1: GPVI of human platelets (receptor, UniProt Q9HCN6 21-339, looked up)
chain: QSGPLPKPSLQALPSSLVPLEKPVTLRCQGPPGVDLYRLEKLSSSRYQDQAVLFIPAMKRSLAGRYRCSYQNGSLWSLPSDQLELVATGVFAKPSLSAQPGPAVSSGGDVTLQCQTRYGFDQFALYKEGDPAPYKNPERWYRASFPIITVTAAHSGTYRCYSFSSRDPYLWSAPSDPLELVVTGTSVTPSRLPTEPPSPVAEFSEATAELTVSFTNEVFTTETSRSITASPKESDSPAGPARQYYTKGNLVRICLGAVILIILAGFLAEDWHSRRKRLRHRGRAVQRPLPPLPPLPLTRKSNGGQDGGRQDVHSRGLCS
notes: also called GPVI collagen receptor
With B1, in experiment [3], the binding result is “no binding”.
With B2, the binding result in experiment [4] was “no binding”.
